Reference: paper PMC12772503

B1: myc-Syd-N2 (Syd^1-529) R492 [Drosophila] / HA-Rab2^Q65L [Drosophila] (parent)
chain 1: MMDNDDALLNNGGPQSGAETVYGTEDNNMVMSEKNEQVVSIVQQLAGSIYQEFERMINRYDEDVVKNLMPLLVNVLECLDASYRINQEQDVEVELLREDNEQLVTQYEREKSARKQSEQKLLEAEDLAEQENKELATRLESVESIVRMLELKHKNSLEHASRLEEREADLKKEYNKLHERYTELFKNHVDYMERTKMLMGSTHSQMSTASERMDVSRARLNPVARSSGPVSYGFASLENSVMLDTETICSVGSQSDDSGPPSLQNELDNLSGTLERGAATDALQQQHHATSPQSPDSSPVVPNVPTNVGRSTTKKEQRSDNNLYQELSFQDNEESEENEIVTGSWVHPGEYASSANDNYFGMGKEVENLIMENNELLATKNALNIVKDDLIVKVDELTGEVEIVREELNAMQQSRTKLRQRISELEDELKKAKEQVKQQNTEQEENDVPLAQRKRFTRVEMAMVLMERNQYKERLMELQEAVRLTEILRASRTVDNLDRKSKQSIWKYFSNLFTPSNRPTERVADGLGG
chain 2: MSYAYLFKYIIIGDTGVGKSCLLLQFTDKRFQPVHDLTIGVEFGARMITIDGKQIKLQIWDTAGLEAFRSITRSYYRGAAGALLVYDITRRETFNHLTTWLEDARQHSNSNMVIMLIGNKSDLDSRREVKKEEGEAFAREHGLVFMETSARTAANVEEAFINTAKEIYEKIQEGVFDINNEANGIKIGQQHSPTNPSLPGAGGAAGAANSGCC

Variants of: B1
Assay: Co-IP (anti-HA IP, anti-myc immunoblot quantification)
Settings: with HA-Rab2^Q65L [Drosophila]; HEK cell lysates; single experiment 1 of 3 (solid line); P < 0.005 vs WT printed; parent: 17; read off a plot

Row | response | Variant
1 | 11 a.u. | chain 1 V482A R483A L484A T485A E486A I487A R489A S491A R492A

Same assay, conditions: with HA-Rab2^Q65L [Drosophila]; HEK cell lysates; single experiment 2 of 3 (upper dashed line); P < 0.005 vs WT printed; parent: 17; read off a plot

Row | response | Variant
2 | 6.8 a.u. | chain 1 V482A R483A L484A T485A E486A I487A R489A S491A R492A

Same assay, conditions: with HA-Rab2^Q65L [Drosophila]; HEK cell lysates; single experiment 3 of 3 (lower dashed line); P < 0.005 vs WT printed; parent: 17; read off a plot

Row | response | Variant
3 | 4.7 a.u. | chain 1 V482A R483A L484A T485A E486A I487A R489A S491A R492A
